Results as given in patent US20260035450A1 (Novo Nordisk, published 2026).

T1: recombinant human ANGPTL3 (rhANGPTL3) (SEQ ID NO:1) (human, UniProt Q9Y5C1 17-460)
T1 sequence: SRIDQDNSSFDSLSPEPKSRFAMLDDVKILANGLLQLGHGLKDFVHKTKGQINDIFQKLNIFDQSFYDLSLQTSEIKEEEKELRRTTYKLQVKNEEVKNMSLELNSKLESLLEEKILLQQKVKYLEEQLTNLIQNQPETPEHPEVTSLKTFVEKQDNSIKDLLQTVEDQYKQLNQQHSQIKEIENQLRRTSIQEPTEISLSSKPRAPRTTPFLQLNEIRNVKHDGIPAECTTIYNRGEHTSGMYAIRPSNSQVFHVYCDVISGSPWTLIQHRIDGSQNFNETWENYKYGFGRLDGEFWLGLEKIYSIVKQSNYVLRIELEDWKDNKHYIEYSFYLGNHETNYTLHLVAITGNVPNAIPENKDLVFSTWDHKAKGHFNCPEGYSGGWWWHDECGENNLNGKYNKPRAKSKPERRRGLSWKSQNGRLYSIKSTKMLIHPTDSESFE


Target: T1, recombinant human ANGPTL3 (rhANGPTL3) …
Test: cell-based or functional assay

Average relative IC50 (inhibition of rhANGPTL3-mediated LPL inhibition)	Binder
3.7 relative to evinacumab SIA	tmAb1 (antibody, human IgG1, kappa) heavy: EVQLLESGGGLVQPGGSLRLSCAASGFNFRSYWMTWVRQAPGKGLEWVSSISSHSTYIYYADSVKGRFTISRDNSKNTLYLQMNSLRAEDTATYYCAREGWYDNWFDPWGQGTLVTVSSASTKGPSVFPLAPSSKSTSGGTAALGCLVKDYFPEPVTVSWNSGALTSGVHTFPAVLQSSGLYSLSSVVTVPSSSLGTQTYICNVNHKPSNTKVDKKVEPKSCDKTHTCPPCPAPEYLGGDSVFLFPPKPKDVLYITREPEVTCVVIDVSHEDPEVKFNWYVDGVEVHNAKTKPREEQYNSTYRVVSVLPVLHRDWLNGKEYKCKVSNKALPKPIEKTISKAKGQRREPQVYTLPPSREEMTKNQVSLWCLVKGFYPSDIAVEWESNGQPENNYKTTPPVLDSDGSFFLYSKLTVDKSRWQQGNVFSCSVMHEALHNHYTQKSLSLSP DKTHTCPPCPAPEYLGGDSVFLFPPKPKDVLYITREPEVTCVVIDVSHEDPEVKFNWYVDGVEVHNAKTKPREEQYNSTYRVVSVLPVLHRDWLNGKEYKCKVSNKALPKPIEKTISKAKGQRREPQVYTLPPSREEMTKNQVSLSCAVKGFYPSDIAVEWESNGQPENNYKTTPPVLDSDGSFFLVSKLTVDKSRWQQGNVFSCSVMHEALHNHYTQKSLSLSP light: EIVLTQSPGTLSLSPGERATLSCRASQNIRSPYLAWYQQKPGQAPRLLIYGVSSRAAGIPDRFSGSGSGTDFTLTISRLEPEDFAVYYCQQYDDHPYTFGQGTKLEIKRTVAAPSVFIFPPSDEQLKSGTASVVCLLNNFYPREAKVQWKVDNALQSGNSQESVTEQDSKDSTYSLSSTLTLSKADYEKHKVYACEVTHQGLSSPVTKSFNRGEC
4.8 relative to evinacumab SIA	tmAb3 (antibody, human IgG1, kappa) heavy: EVQLLESGGGLVQPGGSLRLSCAASGFNFESYWMTWVRQAPGKGLEWVSSISSHSTYIYYADSVKGRFTISRDNSKNTLYLQMNSLRAEDTATYYCAREGWYDNWFDPWGQGTLVTVSSASTKGPSVFPLAPSSKSTSGGTAALGCLVKDYFPEPVTVSWNSGALTSGVHTFPAVLQSSGLYSLSSVVTVPSSSLGTQTYICNVNHKPSNTKVDKKVEPKSCDKTHTCPPCPAPEYLGGDSVFLFPPKPKDVLYITREPEVTCVVIDVSHEDPEVKFNWYVDGVEVHNAKTKPREEQYNSTYRVVSVLPVLHRDWLNGKEYKCKVSNKALPKPIEKTISKAKGQRREPQVYTLPPSREEMTKNQVSLWCLVKGFYPSDIAVEWESNGQPENNYKTTPPVLDSDGSFFLYSKLTVDKSRWQQGNVFSCSVMHEALHNHYTQKSLSLSP DKTHTCPPCPAPEYLGGDSVFLFPPKPKDVLYITREPEVTCVVIDVSHEDPEVKFNWYVDGVEVHNAKTKPREEQYNSTYRVVSVLPVLHRDWLNGKEYKCKVSNKALPKPIEKTISKAKGQRREPQVYTLPPSREEMTKNQVSLSCAVKGFYPSDIAVEWESNGQPENNYKTTPPVLDSDGSFFLVSKLTVDKSRWQQGNVFSCSVMHEALHNHYTQKSLSLSP light: EIVLTQSPGTLSLSPGERATLSCRASQNIRSPYLAWYQQKPGQAPRLLIYGVSSRAAGIPDRFSGSGSGTDFTLTISRLEPEDFAVYYCQQYDDHPYTFGQGTKLEIKRTVAAPSVFIFPPSDEQLKSGTASVVCLLNNFYPREAKVQWKVDNALQSGNSQESVTEQDSKDSTYSLSSTLTLSKADYEKHKVYACEVTHQGLSSPVTKSFNRGEC
2.5 relative to evinacumab SIA	tmAb2 (antibody, human IgG1, kappa) heavy: EVQLLESGGGLVQPGGSLRLSCAASDFNFRSYWMTWVRQAPGKGLEWVSSISSHSTYIYYADSVKGRFTISRDNSKNTLYLQMNSLRAEDTATYYCAREGWYDNWFDPWGQGTLVTVSSASTKGPSVFPLAPSSKSTSGGTAALGCLVKDYFPEPVTVSWNSGALTSGVHTFPAVLQSSGLYSLSSVVTVPSSSLGTQTYICNVNHKPSNTKVDKKVEPKSCDKTHTCPPCPAPEYLGGDSVFLFPPKPKDVLYITREPEVTCVVIDVSHEDPEVKFNWYVDGVEVHNAKTKPREEQYNSTYRVVSVLPVLHRDWLNGKEYKCKVSNKALPKPIEKTISKAKGQRREPQVYTLPPSREEMTKNQVSLWCLVKGFYPSDIAVEWESNGQPENNYKTTPPVLDSDGSFFLYSKLTVDKSRWQQGNVFSCSVMHEALHNHYTQKSLSLSP DKTHTCPPCPAPEYLGGDSVFLFPPKPKDVLYITREPEVTCVVIDVSHEDPEVKFNWYVDGVEVHNAKTKPREEQYNSTYRVVSVLPVLHRDWLNGKEYKCKVSNKALPKPIEKTISKAKGQRREPQVYTLPPSREEMTKNQVSLSCAVKGFYPSDIAVEWESNGQPENNYKTTPPVLDSDGSFFLVSKLTVDKSRWQQGNVFSCSVMHEALHNHYTQKSLSLSP light: EIVLTQSPGTLSLSPGERATLSCRASQNIRSPYLAWYQQKPGQAPRLLIYGVSSRAAGIPDRFSGSGSGTDFTLTISRLEPEDFAVYYCQQYDDHPYTFGQGTKLEIKRTVAAPSVFIFPPSDEQLKSGTASVVCLLNNFYPREAKVQWKVDNALQSGNSQESVTEQDSKDSTYSLSSTLTLSKADYEKHKVYACEVTHQGLSSPVTKSFNRGEC
1.3 relative to evinacumab SIA	tmAb4 (antibody, human IgG1, kappa) heavy: EVQLLESGGGLVQPGGSLRLSCAASGFNFESYWMTWVRQAPGKGLEWVSSISSHSTYIYYADSVKGRFTISRDNSKNTLYLQMNSLRAEDTATYYCAREGWYDNWNDPWGQGTLVTVSSASTKGPSVFPLAPSSKSTSGGTAALGCLVKDYFPEPVTVSWNSGALTSGVHTFPAVLQSSGLYSLSSVVTVPSSSLGTQTYICNVNHKPSNTKVDKKVEPKSCDKTHTCPPCPAPEYLGGDSVFLFPPKPKDVLYITREPEVTCVVIDVSHEDPEVKFNWYVDGVEVHNAKTKPREEQYNSTYRVVSVLPVLHRDWLNGKEYKCKVSNKALPKPIEKTISKAKGQRREPQVYTLPPSREEMTKNQVSLWCLVKGFYPSDIAVEWESNGQPENNYKTTPPVLDSDGSFFLYSKLTVDKSRWQQGNVFSCSVMHEALHNHYTQKSLSLSP DKTHTCPPCPAPEYLGGDSVFLFPPKPKDVLYITREPEVTCVVIDVSHEDPEVKFNWYVDGVEVHNAKTKPREEQYNSTYRVVSVLPVLHRDWLNGKEYKCKVSNKALPKPIEKTISKAKGQRREPQVYTLPPSREEMTKNQVSLSCAVKGFYPSDIAVEWESNGQPENNYKTTPPVLDSDGSFFLVSKLTVDKSRWQQGNVFSCSVMHEALHNHYTQKSLSLSP light: EIVLTQSPGTLSLSPGERATLSCRASQNIRSPYLAWYQQKPGQAPRLLIYGVSSRAAGIPDRFSGSGSGTDFTLTISRLEPEDFAVYYCQQYDDHPYTFGQGTKLEIKRTVAAPSVFIFPPSDEQLKSGTASVVCLLNNFYPREAKVQWKVDNALQSGNSQESVTEQDSKDSTYSLSSTLTLSKADYEKHKVYACEVTHQGLSSPVTKSFNRGEC
